Laboratory results from article PMC7039703.

Legend:
[1] = target: FcγRIIIaV (human) (UniProt P08637); experiment: BLI
[2] = target: His-tagged FcγRI (human) (UniProt P12314); experiment: ELISA
[3] = target: His-tagged FcγRIIB (human) (UniProt P31994); experiment: ELISA
[4] = target: His-tagged FcγRIIaR (human) (UniProt P12318); experiment: ELISA
UniProt P12318, sequence (P12318 34-217): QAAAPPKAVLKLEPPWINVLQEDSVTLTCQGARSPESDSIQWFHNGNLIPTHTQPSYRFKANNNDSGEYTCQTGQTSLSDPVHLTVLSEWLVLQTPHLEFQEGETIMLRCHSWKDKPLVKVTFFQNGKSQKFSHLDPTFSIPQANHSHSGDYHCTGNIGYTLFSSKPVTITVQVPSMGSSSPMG

UniProt P31994, sequence (P31994 43-217): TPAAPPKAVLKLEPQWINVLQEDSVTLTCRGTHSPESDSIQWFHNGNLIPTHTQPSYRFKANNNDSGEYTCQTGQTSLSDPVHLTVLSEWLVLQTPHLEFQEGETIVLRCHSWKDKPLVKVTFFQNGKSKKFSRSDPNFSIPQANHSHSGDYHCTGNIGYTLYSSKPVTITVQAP
UniProt P12314, sequence (P12314 16-292): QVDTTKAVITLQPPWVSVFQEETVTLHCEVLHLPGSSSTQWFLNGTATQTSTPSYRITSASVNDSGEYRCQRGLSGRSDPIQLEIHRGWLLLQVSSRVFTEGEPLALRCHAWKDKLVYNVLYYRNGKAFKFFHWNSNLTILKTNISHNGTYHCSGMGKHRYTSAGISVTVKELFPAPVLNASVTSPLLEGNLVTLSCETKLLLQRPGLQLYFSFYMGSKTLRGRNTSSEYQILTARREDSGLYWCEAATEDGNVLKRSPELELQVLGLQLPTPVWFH
UniProt P08637, sequence (P08637 17-208): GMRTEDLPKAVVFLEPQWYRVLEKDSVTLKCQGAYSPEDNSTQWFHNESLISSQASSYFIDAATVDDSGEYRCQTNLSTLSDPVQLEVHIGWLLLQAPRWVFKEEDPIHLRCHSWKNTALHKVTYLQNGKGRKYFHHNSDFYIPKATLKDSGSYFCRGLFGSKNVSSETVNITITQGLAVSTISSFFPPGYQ

fold lower binding affinity against 293S anti-CD20 [1]: 5.8 fold
fold reduction of binding competition against 293S anti-CD20 [2]: > 10 fold
fold reduction of binding competition against 293S anti-CD20 [3]: > 10 fold
fold reduction of binding competition against 293S anti-CD20 [4]: > 10 fold
Substance: monoclonal anti-CD20 antibody GA101 produced in 293SGlycoDelete cells
